# In patent US20240400703A1 (Genmab, published 2024):
# T1: recombinant human OX40 fused to a His-tag (Acro Biosystems, cat. no. OX0-H5224) (human, UniProt P43489 29-214)
# T1 construct: bought protein; also called sOX40; soluble OX40; not shown: His-tag
# T1 sequence: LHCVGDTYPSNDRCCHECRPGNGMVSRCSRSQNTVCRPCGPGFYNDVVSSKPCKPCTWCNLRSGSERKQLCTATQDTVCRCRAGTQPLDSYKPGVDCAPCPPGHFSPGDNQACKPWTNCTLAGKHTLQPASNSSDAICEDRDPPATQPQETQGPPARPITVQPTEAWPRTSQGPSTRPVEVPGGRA
# T2: human OX40 expressed on cells (human, UniProt P43489 29-277)
# T2 construct: also called CD134; TNFRSF4
# T2 sequence: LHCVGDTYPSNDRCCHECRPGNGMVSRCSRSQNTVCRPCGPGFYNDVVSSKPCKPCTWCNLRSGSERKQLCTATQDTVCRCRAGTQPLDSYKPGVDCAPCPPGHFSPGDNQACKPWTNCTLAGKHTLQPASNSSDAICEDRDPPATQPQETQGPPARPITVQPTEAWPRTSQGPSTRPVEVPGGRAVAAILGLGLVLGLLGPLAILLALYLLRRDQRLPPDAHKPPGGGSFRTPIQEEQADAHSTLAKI
# B1: IgG1-CD134-003 (antibody)
# heavy: not shown
# light: AAVLTQTPSPVSAAVGGTVTIKCQSSQIVVNNNFLSWYQQKPGQPPKLLIYDASNLASGVPDRFSGSGSGTQFTLTISGVQSDDAATYYCLGGYDDDAENAFGGGTEVVVQRTVAAPSVFIFPPSDEQLKSGTASVVCLLNNFYPREAKVQWKVDNALQSGNSQESVTEQDSKDSTYSLSSTLTLSKADYEKHKVYACEVTHQGLSSPVTKSFNRGEC
# notes: rabbit-human chimeric IgG1, wild-type Fc; also called parental chimeric antibody
# B2: IgG1-CD134-003-HC6LC2-P329R-E345R (antibody)
# heavy: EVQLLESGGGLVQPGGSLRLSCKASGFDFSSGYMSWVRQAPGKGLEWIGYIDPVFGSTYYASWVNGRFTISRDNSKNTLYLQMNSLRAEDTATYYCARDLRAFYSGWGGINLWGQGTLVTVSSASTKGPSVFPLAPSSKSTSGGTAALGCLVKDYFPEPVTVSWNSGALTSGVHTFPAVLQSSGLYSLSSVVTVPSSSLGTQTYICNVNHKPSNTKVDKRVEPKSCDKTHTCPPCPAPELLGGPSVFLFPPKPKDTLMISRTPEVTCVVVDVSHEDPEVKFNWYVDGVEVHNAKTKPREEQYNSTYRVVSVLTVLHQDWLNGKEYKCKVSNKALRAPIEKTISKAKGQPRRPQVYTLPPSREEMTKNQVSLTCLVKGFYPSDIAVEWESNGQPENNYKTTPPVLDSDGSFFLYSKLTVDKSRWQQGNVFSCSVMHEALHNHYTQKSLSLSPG
# light: AAVLTQSPSSLSASVGDRVTITCQSSQIVVNNNFLSWYQQKPGKAPKLLIYDASNLASGVPDRFSGSGSGTDFTFTISSLQPEDIATYYCLGGYDDDAENAFGGGTKVEIKRTVAAPSVFIFPPSDEQLKSGTASVVCLLNNFYPREAKVQWKVDNALQSGNSQESVTEQDSKDSTYSLSSTLTLSKADYEKHKVYACEVTHQGLSSPVTKSFNRGEC
# notes: humanized; human IgG1 with P329R and E345R (Eu numbering), kappa; also called IgG1-CD134-003-HC6LC2-RR
# B3: IgG1-CD134-012 (antibody)
# heavy: not shown
# light: DIVMTQTPASVEAAVGGTVTIKCQASENIYSSLAWYQQKPGQPPKLLIYRTSTLASGVPSRFKGSGSGTQFTLTISDLESDDAATYYCQSYYHNSGGGYDYGFGGGTEVVAKRTVAAPSVFIFPPSDEQLKSGTASVVCLLNNFYPREAKVQWKVDNALQSGNSQESVTEQDSKDSTYSLSSTLTLSKADYEKHKVYACEVTHQGLSSPVTKSFNRGEC
# notes: rabbit-human chimeric IgG1
# B4: IgG1-CD134-007 (antibody)
# heavy: not shown
# light: AQVLTQTPSPVSAAVGGTVTISCQSSESVWNNNWLAWYQQKPGQPPNLLIYEASTLASGVSSRFKGSGSGTQFTLTVSEVQSDDAATYYCQGGYYDSSPIWTFGGGTEVVVKRTVAAPSVFIFPPSDEQLKSGTASVVCLLNNFYPREAKVQWKVDNALQSGNSQESVTEQDSKDSTYSLSSTLTLSKADYEKHKVYACEVTHQGLSSPVTKSFNRGEC
# notes: rabbit-human chimeric IgG1
# Molecular target: T1, recombinant human OX40 fused to a …
# Assay: BLI cross-block; first Ab (competitor): IgG1-CD134-012
# Procedure: (§1) Experiments were carried out while shaking at 1,000 RPM and at 30° C.
# (§2) Amine Reactive 2nd Generation (AR2G) biosensors (Sartorius, cat. no. 18-5092) were activated for 300 s with a solution of 20 mM EDC (N-(3-Dimethylaminopropyl)-N-ethylcarbodiimide hydrochloride; Sartorius, cat. no. 18-1033) and 10 mM s-NHS (N-hydroxysulfosuccinimide sodium salt; Sartorius, cat. no. 18-1067). […] After a baseline measurement in Sample Diluent (Sartorius, cat. no. 18-1104) for 50 s, the AR2G biosensors containing immobilized antibody were loaded for 300 s with human OX40 fused to a His-tag (100 nM diluted in Sample Diluent; Acro Biosystems, cat. no. OX0-H5224). The association (300 s) of a second antibody (10 μg/mL in Sample Diluent) was determined. Sensors were regenerated by three cycles of exposure to 10 mM Glycine (Sigma-Aldrich, cat. no. 15527) buffer pH 2.5 for 5 s followed by neutralization in Sample Diluent for 5 s.
# (§3) Data were acquired using Data Acquisition Software v12.0 (Sartorius) and analyzed with Data Analysis HT Software v12.0 (Sartorius). Data traces were corrected by subtraction of a reference curve (Sample Diluent instead of second antibody) in order to correct for the dissociation of antigen from the immobilized first antibody. The Y-axis was aligned to the start of the association step and Savitzky-Golay filtering was applied. The corrected association responses of the second antibodies were plotted in a matrix format (Table 5). Responses ≥0.1 nm were considered non-blocking antibody pairs, while responses <0.1 were considered blocking antibody pairs.
row,association response [nm],Binder
1,-0.01,B1
2,-0.02,B2
3,0,B3
4,0.8,B4

# Molecular target: T1, recombinant human OX40 fused to a …
# Assay: BLI cross-block; first Ab (competitor): IgG1-CD134-SF2
# Procedure: as §2, §3
row,association response [nm],Binder
1,0.21,B1
2,0.22,B2
3,0.14,B3
4,0.22,B4

# Molecular target: T1, recombinant human OX40 fused to a …
# Assay: BLI cross-block; first Ab (competitor): IgG1-CD134-003
# Procedure: as §1, §2, §3
row,association response [nm],Binder
1,0.02,B1
2,0.04,B2
3,0,B3
4,-0.02,B4

# Molecular target: T1, recombinant human OX40 fused to a …
# Assay: BLI cross-block; first Ab (competitor): IgG1-CD134-003-HC6LC2-RR
# Procedure: as §2, §3
row,association response [nm],Binder
1,-0.03,B1
2,0,B2
3,0.03,B3
4,-0.07,B4

# Molecular target: T2, human OX40 expressed on cells
# Assay: flow cytometry, activated human CD8+ T cells, mean of 3 donors
# Procedure: Healthy human donor PBMCs were purified essentially as described in Example 7. The cell concentration was adjusted to 2×10⁶ cells per mL (final concentration) in assay medium and plated in 6-well plates (Greiner, cat. no. 657160). PBMCs were stimulated with 0.3 μg/mL anti-CD3 ([…] Technologies, cat. no. 60011) and 0.5 μg/mL anti-CD28 antibodies (BioLegend, cat. no. 302934) and cultured for two days at 37° C., 5% CO₂. Next, the PBMCs were harvested, counted and brought to a concentration of 2×10⁶ cells per mL in FACS buffer 1 (DPBS with 2% heat-inactivated FBS and 2 mM ethylenediaminetetraacetic acid [EDTA]). […] After 60 min at RT, the cells were prepared for flow cytometric analyses. To this end, the cells were washed twice with 150 μL FACS buffer 1 and 30 μL/well cell-surface antibody mix (Table 9) in FACS buffer 1 containing antibody against human Fcγ antibody (Table 9) and fixable viability dye eFluor780 (1:1,500) was added. The staining procedures were carried out at 4° C. for 15-20 min protected from light. Stained cells were washed twice with 120-150 μL FACS buffer 1 (5 min, 460×g, RT) and resuspended in 60-100 μL FACS buffer 1 for direct flow cytometric analyses. Flow cytometric data were acquired on a FACSymphony A3 and analyzed with FlowJo software.
row,EC50 [µg/mL],Binder
1,0.0236,B2

# Molecular target: T1, recombinant human OX40 fused to a …
# Assay: BLI cross-block; first Ab (competitor): IgG1-CD134-Hu106
# Procedure: as §2, §3
row,association response [nm],Binder
1,0.64,B1
2,0.74,B2
3,0.51,B3
4,0,B4

# Molecular target: T1, recombinant human OX40 fused to a …
# Assay: BLI cross-block; first Ab (competitor): IgG1-CD134-RG7888
# Procedure: as §2, §3
row,association response [nm],Binder
1,0.66,B1
2,0.65,B2
3,0.42,B3
4,0.64,B4

# Molecular target: T1, recombinant human OX40 fused to a …
# Assay: BLI cross-block; first Ab (competitor): IgG1-CD134-MEDI0562
# Procedure: as §2, §3
row,association response [nm],Binder
1,0.3,B1
2,0.34,B2
3,0.23,B3
4,0.32,B4

# Molecular target: T1, recombinant human OX40 fused to a …
# Assay: BLI cross-block; first Ab (competitor): IgG1-CD134-IBI101
# Procedure: as §2, §3
row,association response [nm],Binder
1,0.23,B1
2,0.34,B2
3,0.28,B3
4,0,B4
